Tests used:
14-3-3 Epsilon = 14-3-3 Epsilon (UniProt P48347); test: far-western of anti-GFP IP, GST-14-3-3 probe; settings: reference: wild-type GFP-NPH3; sites S744
[1] = target: T1, GFP-NPH3 (NON-PHOTOTROPIC HYPOCOTYL 3) (Arabidopsis, UniProt Q9FMF5 1-746, phosphoserine at 744 after blue light irradiation (pS744 antibody), not in darkness; phosphorylated on multiple other sites in darkness (including S213, S223, S233, S237), dephosphorylated after blue …); test: far-Western, overlay or dot blot; GFP-Trap immunoprecipitates from etiolated seedlings irradiated with 20 µmol m^-2 s^-1 blue light for 15 min (L), separated by SDS-PAGE, on PVDF; probed with purified GST-14-3-3 or GST alone at 1 µM in 20 mM HEPES-KOH pH 7.7, 75 mM KCl, 0.1 mM EDTA, 1 mM DTT, 2% milk, 0.04% Tween-20; detected with anti-GST; settings: both partners purified
T1 construct: NPH3 (NON-PHOTOTROPIC HYPOCOTYL 3), Arabidopsis; S746 is the last residue; The state of the protein differs between dark and blue-light-treated seedlings; the two are kept apart by the assay; also called NPH3::GFP-NPH3; source: etiolated Arabidopsis nph3 seedlings expressing NPH3::GFP-NPH3; total protein extract, anti-GFP immunoprecipitated
T1 sequence (looked up): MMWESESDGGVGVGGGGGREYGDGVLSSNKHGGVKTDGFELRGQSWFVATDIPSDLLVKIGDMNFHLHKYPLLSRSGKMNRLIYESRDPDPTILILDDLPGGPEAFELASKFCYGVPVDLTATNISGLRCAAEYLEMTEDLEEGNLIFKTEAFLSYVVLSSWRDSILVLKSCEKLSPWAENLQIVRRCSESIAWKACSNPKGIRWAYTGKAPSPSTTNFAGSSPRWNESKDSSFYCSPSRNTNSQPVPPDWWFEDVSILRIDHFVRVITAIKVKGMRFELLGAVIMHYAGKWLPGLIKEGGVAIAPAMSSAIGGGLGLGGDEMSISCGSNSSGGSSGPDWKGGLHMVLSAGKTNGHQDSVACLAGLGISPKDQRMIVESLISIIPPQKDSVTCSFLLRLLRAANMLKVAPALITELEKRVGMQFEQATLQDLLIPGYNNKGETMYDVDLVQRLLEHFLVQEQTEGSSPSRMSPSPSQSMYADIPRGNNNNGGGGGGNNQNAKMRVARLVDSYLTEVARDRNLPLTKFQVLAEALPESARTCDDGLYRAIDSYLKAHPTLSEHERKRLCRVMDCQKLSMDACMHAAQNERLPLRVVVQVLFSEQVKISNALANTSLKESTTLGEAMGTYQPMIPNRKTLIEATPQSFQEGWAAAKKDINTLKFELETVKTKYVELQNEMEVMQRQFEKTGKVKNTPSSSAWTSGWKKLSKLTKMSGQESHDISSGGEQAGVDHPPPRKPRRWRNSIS

GFP-NPH3 S746A = target: T2, GFP-NPH3 S746A (Arabidopsis, UniProt Q9FMF5 1-746, S746A, phosphoserine at 744 after blue light irradiation, at a reduced level (pS744 antibody)); test: as above; settings: both partners purified
T2 construct: NPH3, Arabidopsis; source: etiolated Arabidopsis nph3 seedlings expressing NPH3::GFP-NPH3 S746A; total protein extract, anti-GFP immunoprecipitated
T2 sequence (looked up): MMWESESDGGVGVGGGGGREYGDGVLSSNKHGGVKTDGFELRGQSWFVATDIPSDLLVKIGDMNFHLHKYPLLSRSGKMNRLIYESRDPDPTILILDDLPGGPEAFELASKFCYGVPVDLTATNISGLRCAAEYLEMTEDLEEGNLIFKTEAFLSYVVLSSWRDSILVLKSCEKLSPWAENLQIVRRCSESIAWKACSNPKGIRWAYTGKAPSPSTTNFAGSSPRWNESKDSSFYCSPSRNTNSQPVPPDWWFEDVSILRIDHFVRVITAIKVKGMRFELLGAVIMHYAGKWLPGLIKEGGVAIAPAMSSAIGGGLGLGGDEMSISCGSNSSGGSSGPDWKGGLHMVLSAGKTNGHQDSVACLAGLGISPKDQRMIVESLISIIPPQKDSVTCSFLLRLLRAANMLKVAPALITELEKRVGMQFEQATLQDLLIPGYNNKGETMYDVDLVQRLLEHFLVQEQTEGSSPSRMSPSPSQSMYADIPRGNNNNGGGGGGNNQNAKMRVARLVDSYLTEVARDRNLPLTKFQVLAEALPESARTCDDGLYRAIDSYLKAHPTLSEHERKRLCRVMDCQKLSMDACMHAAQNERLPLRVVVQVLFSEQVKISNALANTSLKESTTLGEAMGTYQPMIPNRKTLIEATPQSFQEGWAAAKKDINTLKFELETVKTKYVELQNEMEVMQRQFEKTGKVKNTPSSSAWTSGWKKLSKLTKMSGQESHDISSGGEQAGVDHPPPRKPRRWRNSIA

Row | Molecule | binding against the reference (14-3-3 Epsilon) | binding result [1] | binding result (GFP-NPH3 S746A)
1 | NPH3 (NON-PHOTOTROPIC HYPOCOTYL 3) (from UniProt Q9FMF5) S744A | lost |  | 
2 | GST-14-3-3 Lambda (natural protein, Arabidopsis, UniProt P48349 1-248, looked up, Arabidopsis 14-3-3 isoform Lambda (non-epsilon group member), expressed from pGEX-4T1 as a translational fusion with GST; source: E. coli BL21(DE3), purified (glutathione agarose)) MAATLGRDQYVYMAKLAEQAERYEEMVQFMEQLVTGATPAEELTVEERNLLSVAYKNVIGSLRAAWRIVSSIEQKEESRKNDEHVSLVKDYRSKVESELSSVCSGILKLLDSHLIPSAGASESKVFYLKMKGDYHRYMAEFKSGDERKTAAEDTMLAYKAAQDIAAADMAPTHPIRLGLALNFSVFYYEILNSSDKACNMAKQAFEEAIAELDTLGEESYKDSTLIMQLLRDNLTLWTSDMQEQMDEA |  | binds | 
3 | GST-14-3-3 Epsilon (natural protein, Arabidopsis, UniProt P48347 1-254, looked up, Arabidopsis 14-3-3 isoform Epsilon (epsilon group member), expressed from pGEX-4T1 as a translational fusion with GST; source: E. coli BL21(DE3), purified (glutathione agarose)) MENEREKQVYLAKLSEQTERYDEMVEAMKKVAQLDVELTVEERNLVSVGYKNVIGARRASWRILSSIEQKEESKGNDENVKRLKNYRKRVEDELAKVCNDILSVIDKHLIPSSNAVESTVFFYKMKGDYYRYLAEFSSGAERKEAADQSLEAYKAAVAAAENGLAPTHPVRLGLALNFSVFYYEILNSPESACQLAKQAFDDAIAELDSLNEESYKDSTLIMQLLRDNLTLWTSDLNEEGDERTKGADEPQDEN |  | binds | binds

Source: article PMC8531357, “Regulation of plant phototropic growth by NPH3/RPT2-like substrate phosphorylation and 14-3-3 binding” (Nature Communications, 2021)
